Experimental data published in PMC10335668 (2023).

B1: HCV E1 glycoprotein, H77 WT isolate [hepatitis C virus] / CD81 receptor [not stated] (parent complex)
chain 1: YQVRNSSGLYHVTNDCPNSSVVYEAADAILHTPGCVPCVREGNASRCWVAVTPTVATRDGKLPTTQLRRHIDLLVGSATLCSALYVGDLCGSVFLVGQLFTFSPRHHWTTQDCNCSIYPGHITGHRMAWNMMMNWSPTAALVVAQLLRIPQAIMDMIAGAHWGVLAGIKYFSMVGNWAKVLVVLLLFAGVDA
chain 2: MGVEGCTKCIKYLLFVFNFVFWLAGGVILGVALWLRHDPQTTNLLYLELGDKPAPNTFYVGIYILIAVGAVMMFVGFLGCYGAIQESQCLLGTFFTCLVILFACEVAAGIWGFVNKDQIAKDVKQFYDQALQQAVVDDDANNAKAVVKTFHETLDCCGSSTLTALTTSVLKNNLCPSGSNIISNLFKEDCHQKIDDLFSGKLYLIGIAAIVVAVIMIFEMILSMVLCCGIRNSSVY

Variants of: B1
Assay: CD81 receptor binding (method in S1 Text, not given); parent: 1; read off a plot
chain 1 R4C, chain 1 Q111C showed a ratio to parent of ~0.6. In the case of chain 1 E24C, chain 1 I29C, the ratio to parent is reported as ~0.65. With chain 1 C16A, chain 1 C35A the ratio to parent was ~0.8. chain 1 C81A, chain 1 C90A showed a ratio to parent of ~1.1. Work on chain 1 C38A, chain 1 C113A yielded a ratio to parent of ~0.85. Work on chain 1 C47A, chain 1 C115A yielded a ratio to parent of ~0.85.
